According to article PMC5437307 (2017):
“And” between values parts separate entries of the source, which are not always exact repeats. Equal entries are not always repeated.

How the values were obtained:
IL-2Rβγc (Homo sapiens) = IL-2Rβγc (Homo sapiens) (UniProt P14784); conditions: cited from earlier work
[1] = target: T1, F42A mutant (IL-2-Fc format) (human, UniProt P60568 21-153, F42A); experiment: SPR
[2] = target: T1, F42A mutant (IL-2-Fc format); experiment: SPR; remark: listed apart in the source

Sequence of IL-2Rβγc (Homo sapiens) (P14784 27-240, chain 1 of 2): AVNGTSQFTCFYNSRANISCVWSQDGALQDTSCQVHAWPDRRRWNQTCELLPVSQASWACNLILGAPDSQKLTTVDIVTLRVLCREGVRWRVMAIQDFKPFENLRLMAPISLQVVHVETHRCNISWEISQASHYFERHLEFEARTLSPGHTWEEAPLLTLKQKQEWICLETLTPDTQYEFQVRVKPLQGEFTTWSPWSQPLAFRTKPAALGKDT
Sequence of IL-2Rβγc (Homo sapiens) (P31785 23-262, chain 2 of 2, further chain): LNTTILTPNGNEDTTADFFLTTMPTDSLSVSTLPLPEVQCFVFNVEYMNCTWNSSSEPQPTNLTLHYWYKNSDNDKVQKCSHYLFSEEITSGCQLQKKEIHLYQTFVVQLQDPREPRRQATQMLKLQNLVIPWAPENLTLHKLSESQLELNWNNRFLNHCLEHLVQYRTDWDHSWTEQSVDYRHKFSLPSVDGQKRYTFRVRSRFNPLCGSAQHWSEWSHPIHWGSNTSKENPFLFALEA
Sequence of IL-2 (P60568 21-153): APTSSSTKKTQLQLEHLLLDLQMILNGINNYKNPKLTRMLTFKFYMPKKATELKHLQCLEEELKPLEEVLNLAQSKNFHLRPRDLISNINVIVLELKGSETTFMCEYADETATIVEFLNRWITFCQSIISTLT

| Kd [1] | koff [2] [s⁻¹] | Molecule | Kd (IL-2Rβγc (Homo sapiens)) [nM] |
| --- | --- | --- | --- |
| – | – | IL-2 (from UniProt P60568) | 1 |
| 1080 nM and 1100 nM | 0.325 | hCD25-His (receptor) ELCDDDPPEIPHATFKAMAYKEGTMLNCECKRGFRRIKSGSLYMLCTGNSSHSSWDNQCQCTSSATRNTTKQVTPQPEEQKERKTTEMQSPMQPVDQASLPGHCREPPPWENEATERIYHFVVGQMVYYQCVQGYRALHRGPAESVCKMTHGKTRWTQPQLICTGEMETSQFPGEEKPQASPEGRPESETSCLVTTTDFQIQTEMAATMETSIFTTEYQ | – |
